The target of assay [1] is integrins on CHO cells (α5β1+ and αvβ3 low), PSGL-1 negative. As to the kind of experiment: cell-based or functional assay.
For another assay, the target named is T1, soluble integrin αvβ3 (UniProt P06756 31-992; P05106 27-718).
T1 construct: Soluble integrin used at 1 µg/ml; also called soluble αvβ3
As to the kind of experiment: ELISA-type, coated proteins, soluble integrin. On the technique in general: An ELISA detects its analyte on a solid surface through an enzyme-linked reagent.

The target in assay [2] is T2, soluble recombinant integrin αIIbβ3 (UniProt P08514 32-993; P05106 27-718).
T2 construct: Bought (AgroBio), used at 1 µg/ml; also called soluble αIIbβ3
As to the kind of experiment: ELISA-type, coated proteins, soluble integrin.

Where “and” joins values, the source holds several entries; their conditions need not be identical. Equal entries are not always repeated.

T1 sequence (P06756 31-992, chain 1 of 2): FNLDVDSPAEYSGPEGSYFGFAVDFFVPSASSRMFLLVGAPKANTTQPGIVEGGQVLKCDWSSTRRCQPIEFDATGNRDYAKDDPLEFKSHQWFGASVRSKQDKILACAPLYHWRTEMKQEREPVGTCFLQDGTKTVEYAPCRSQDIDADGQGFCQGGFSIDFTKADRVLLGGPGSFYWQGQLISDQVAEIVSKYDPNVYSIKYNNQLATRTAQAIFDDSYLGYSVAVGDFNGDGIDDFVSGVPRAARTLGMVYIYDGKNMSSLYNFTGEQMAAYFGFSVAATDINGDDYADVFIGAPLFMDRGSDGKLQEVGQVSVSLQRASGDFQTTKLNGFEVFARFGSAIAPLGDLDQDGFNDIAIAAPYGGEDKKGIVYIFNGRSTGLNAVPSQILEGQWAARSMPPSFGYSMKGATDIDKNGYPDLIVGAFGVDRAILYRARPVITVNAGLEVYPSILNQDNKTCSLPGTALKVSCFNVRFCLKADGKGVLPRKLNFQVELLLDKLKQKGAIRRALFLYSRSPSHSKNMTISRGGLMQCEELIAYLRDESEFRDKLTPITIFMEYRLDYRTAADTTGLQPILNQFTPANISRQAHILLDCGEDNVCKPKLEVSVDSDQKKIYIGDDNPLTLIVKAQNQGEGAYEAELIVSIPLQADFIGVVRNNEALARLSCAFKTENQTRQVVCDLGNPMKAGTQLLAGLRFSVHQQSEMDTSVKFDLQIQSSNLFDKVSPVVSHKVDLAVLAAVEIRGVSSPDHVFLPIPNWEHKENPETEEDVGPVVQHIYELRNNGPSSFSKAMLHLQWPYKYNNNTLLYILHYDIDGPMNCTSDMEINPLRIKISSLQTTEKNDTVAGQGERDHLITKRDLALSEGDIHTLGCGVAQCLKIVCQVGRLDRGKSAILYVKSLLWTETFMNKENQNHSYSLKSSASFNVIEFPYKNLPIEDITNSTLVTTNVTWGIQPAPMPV
T1 sequence (P05106 27-718, chain 2 of 2): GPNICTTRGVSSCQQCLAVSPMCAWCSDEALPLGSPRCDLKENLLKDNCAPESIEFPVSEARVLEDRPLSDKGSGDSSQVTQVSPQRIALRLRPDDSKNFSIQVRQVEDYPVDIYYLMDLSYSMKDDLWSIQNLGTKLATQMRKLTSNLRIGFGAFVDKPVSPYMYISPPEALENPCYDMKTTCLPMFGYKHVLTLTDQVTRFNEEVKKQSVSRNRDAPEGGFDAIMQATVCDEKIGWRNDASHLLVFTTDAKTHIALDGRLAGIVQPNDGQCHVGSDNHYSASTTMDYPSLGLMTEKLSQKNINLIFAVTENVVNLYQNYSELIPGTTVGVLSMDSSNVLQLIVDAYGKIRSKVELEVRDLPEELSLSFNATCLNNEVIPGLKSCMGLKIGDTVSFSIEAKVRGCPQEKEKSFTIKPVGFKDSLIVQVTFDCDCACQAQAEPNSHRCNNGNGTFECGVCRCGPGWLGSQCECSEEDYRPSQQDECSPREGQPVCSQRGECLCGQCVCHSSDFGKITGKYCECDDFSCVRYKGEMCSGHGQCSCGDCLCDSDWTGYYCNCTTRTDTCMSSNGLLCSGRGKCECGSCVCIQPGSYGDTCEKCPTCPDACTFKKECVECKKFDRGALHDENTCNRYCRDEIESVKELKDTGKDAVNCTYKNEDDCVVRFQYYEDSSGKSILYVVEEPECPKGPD

B1: C-type lectin domain of CD62P (P-selectin), wild type, residues 1-117 (ligand, not shown: small tags and cut ends)
chain: WTYHYSTKAYSWNISRKYCQNRYTDLVAIQNKNEIDYLNKVLPYYSSYYWIGIRKNNKTWTWVGTKKALTNEAENWADNEPNNKRNNEDCVEIYIKSPSAPGKWNDEHCLKKKHALC
notes: also called the lectin domain; CD62P lectin domain
Turning to B1, the adhesion of CHO cells to immobilized lectin domain in assay [1] is 70% and > 90%. For the same molecule, the “fold binding against the combined lectin and EGF-like domains” value (in the assay with soluble integrin αvβ3; in assay [2]) was approximately 2 fold throughout.

B2: CD62P lectin domain mutant R16E/K17E, P16109 42-158 (ligand, not shown: small tags and cut ends)
chain: WTYHYSTKAYSWNISEEYCQNRYTDLVAIQNKNEIDYLNKVLPYYSSYYWIGIRKNNKTWTWVGTKKALTNEAENWADNEPNNKRNNEDCVEIYIKSPSAPGKWNDEHCLKKKHALC
Take B2: in assay [1], the adhesion of CHO cells to immobilized lectin domain was 60%.
